Reference: US20050032118A1, “Nitrophenyl derivatives that can be activated by light” (priority 1996, published 2005)

Experiment: Photolysis of nitrobenzyl-BSA conjugates with ultraviolet light (365 nm), residues counted by spectrophotometry
Conditions: for residues removed on irradiation with light: BSA as model protein, 8-15 residues bound, approximately 10 mins; for NBE residues cleaved from the protein / NBE residues cleaved: UV 10 min

residues removed on irradiation with light | Compound | NBE residues cleaved from the protein (3 NBE residues bound per protein molecule (50 mg sample)) [residues] | NBE residues cleaved (3.5 NBE residues per BSA molecule) [residues] | NBE residues cleaved (6.9 NBE residues per BSA molecule) [residues] | NBE residues cleaved (10.8 NBE residues per BSA molecule) [residues] | NBE residues cleaved (14.5 NBE residues per BSA molecule) [residues] | NBE residues cleaved from the protein (14.8 NBE residues bound per protein molecule (25 mg sample)) [residues]
~65% | O=[N+]([O-])c1ccccc1CO [NBA, 2-nitrobenzyl alcohol] |  |  |  |  |  | 
about 95% | CC(O)Cc1ccccc1[N+](=O)[O-] (centres unmarked) [NBE, 1-(2-nitrobenzyl)ethanol] |  |  |  |  |  | 
 | NBE-BSA conjugates: bovine serum albumin randomly coated with NBE residues through nitrobenzyloxycarbonyl chloride | 3 | 2.5 | 6.0 | 10 | 14 | 14
